In US20210380664A1 (AICURIS ANTI INFECTIVE CURES, published 2021):

Biological target: HCMV virus particles, strain TB40/E
Test: cell-based or functional assay

With GRHIYIYVPDPDVAFVPLGMTDYLVIVEDDDSAIIPCRTT [PDGFR-alpha derived 40mer peptide GT40] the “EC50 of inhibition of infection of HFFs by peptide” value was 2000 nM.
